Test results taken from the supplement of paper PMC11136658.

Tested on: peptide library, one residue held at a place counted from the Y acceptor
Assay: relative phosphorylation of the sub-library (ratio to the mean residue at this position); higher = residue favoured
Procedure, shortened: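 Biotinylated Tyr-centred peptide library mixtures, each fixing one residue at one position from −5 to +5, were incubated with purified recombinant kinases in 384-well plates for 90 min with 50 μM ATP plus γ-32P-ATP. Streptavidin membranes captured the peptides, which were rinsed and quantified by phosphorimaging and ImageQuant. At each position, intensities were divided by the sum of the 18 randomized residues (16 for the Ser/Thr-free library) and multiplied by that number. Each value is phosphorylation relative to the mean randomized residue.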

ZAP70, construct: Full length, human, sequence (P43403 whole entry, looked up): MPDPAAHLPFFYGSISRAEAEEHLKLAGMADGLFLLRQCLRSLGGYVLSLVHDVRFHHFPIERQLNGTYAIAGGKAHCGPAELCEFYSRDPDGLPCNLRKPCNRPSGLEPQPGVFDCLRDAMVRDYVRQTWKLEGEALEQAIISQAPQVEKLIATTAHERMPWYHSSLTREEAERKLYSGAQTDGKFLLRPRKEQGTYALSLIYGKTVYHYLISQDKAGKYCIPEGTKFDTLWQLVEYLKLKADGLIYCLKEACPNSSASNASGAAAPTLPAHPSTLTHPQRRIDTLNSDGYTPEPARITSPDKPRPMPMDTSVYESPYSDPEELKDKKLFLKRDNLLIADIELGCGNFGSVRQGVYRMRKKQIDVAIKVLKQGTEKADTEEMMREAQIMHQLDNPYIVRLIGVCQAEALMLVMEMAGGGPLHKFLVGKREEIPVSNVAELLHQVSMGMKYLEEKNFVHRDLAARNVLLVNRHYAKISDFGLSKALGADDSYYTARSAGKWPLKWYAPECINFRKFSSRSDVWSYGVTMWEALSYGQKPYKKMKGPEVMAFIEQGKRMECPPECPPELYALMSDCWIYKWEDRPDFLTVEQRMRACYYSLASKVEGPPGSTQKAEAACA

ZAP70, construct: Full length, human (from UniProt P43403)
relative phosphorylation
Settings | at +1 | at +2 | at +3 | at +4 | at +5 | at -1 | at -2 | at -3 | at -4 | at -5
A fixed | 1.06 | 0.821 | 0.963 | 0.884 | 1.33 | 0.998 | 0.898 | 0.967 | 1.56 | 1.12
D fixed | 0.587 | 0.722 | 0.434 | 1.07 | 1.28 | 3.39 | 1.51 | 2.04 | 1.67 | 1.57
E fixed | 1.29 | 1.08 | 0.275 | 1 | 1.28 | 1.95 | 2.19 | 2.09 | 2.51 | 1.4
F fixed | 1.5 | 1.2 | 0.924 | 0.707 | 0.618 | 0.579 | 0.492 | 0.617 | 0.494 | 0.863
G fixed | 0.481 | 0.544 | 0.842 | 1.14 | 1.63 | 0.746 | 1.56 | 1.1 | 1.43 | 1.58
H fixed | 1.33 | 0.773 | 0.947 | 1.21 | 0.872 | 0.946 | 1 | 0.848 | 0.854 | 1.15
I fixed | 0.769 | 0.724 | 1.11 | 0.548 | 0.423 | 0.956 | 0.413 | 0.588 | 0.561 | 0.684
K fixed | 0.553 | 0.811 | 0.389 | 1.01 | 0.858 | 0.496 | 0.629 | 0.638 | 0.609 | 0.847
L fixed | 0.761 | 0.949 | 0.956 | 0.764 | 0.55 | 0.796 | 0.465 | 0.559 | 0.571 | 0.553
M fixed | 0.97 | 0.827 | 1.98 | 0.997 | 0.83 | 0.671 | 0.633 | 0.54 | 0.618 | 0.947
N fixed | 0.635 | 1.01 | 0.499 | 0.731 | 0.967 | 1.2 | 1.52 | 1.53 | 0.822 | 1.26
P fixed | 0.314 | 0.988 | 2.61 | 1.77 | 2.28 | 0.594 | 0.845 | 1.06 | 1.76 | 1.08
Q fixed | 1.4 | 1.14 | 0.626 | 1.28 | 0.936 | 0.958 | 1.46 | 1.01 | 1.03 | 0.886
R fixed | 0.448 | 0.77 | 0.432 | 1 | 0.522 | 0.4 | 0.576 | 0.713 | 0.684 | 0.814
S fixed | 0.981 | 0.862 | 1.09 | 1.05 | 1.15 | 0.899 | 1.39 | 1.36 | 0.877 | 0.847
T fixed | 1.31 | 1.08 | 0.782 | 0.955 | 1.25 | 1.04 | 1.26 | 0.966 | 0.661 | 0.925
V fixed | 1.56 | 0.99 | 1.55 | 0.907 | 0.617 | 0.8 | 0.693 | 0.666 | 0.676 | 0.837
W fixed | 2.05 | 2.7 | 1.58 | 0.97 | 0.62 | 0.573 | 0.464 | 0.713 | 0.625 | 0.625
pThr fixed | 1.75 | 2.19 | 0.364 | 0.792 | 1.55 | 6.59 | 4.22 | 4.5 | 2.58 | 2.92
pTyr fixed | 14.8 | 2.62 | 0.501 | 0.573 | 1.09 | 16.3 | 3.62 | 4.31 | 3.03 | 2.17
